Source: patent US20250026827A1

Molecular target: SIRPγ on Jurkat cells (human) (UniProt Q9P1W8)
Experiment: flow cytometry on Jurkat cells (endogenous SIRPγ), PE-conjugated antibody, fold over isotype (MFI)

SIRPγ on Jurkat cells (human), sequence (Q9P1W8 29-387): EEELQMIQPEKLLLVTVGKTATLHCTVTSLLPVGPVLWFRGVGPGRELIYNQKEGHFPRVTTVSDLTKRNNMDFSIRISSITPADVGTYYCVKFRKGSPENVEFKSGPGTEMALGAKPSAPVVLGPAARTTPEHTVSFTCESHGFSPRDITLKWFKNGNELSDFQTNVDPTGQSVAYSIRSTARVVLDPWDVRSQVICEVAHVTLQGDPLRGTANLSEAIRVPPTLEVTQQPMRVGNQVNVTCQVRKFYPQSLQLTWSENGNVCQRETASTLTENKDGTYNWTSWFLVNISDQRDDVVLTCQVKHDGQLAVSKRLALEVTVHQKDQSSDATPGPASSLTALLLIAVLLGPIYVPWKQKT

EC50 (read off the curve): 0.02 µM
Substance: PE SIRPy LSB2.20 (antibody)
